Laboratory results published in paper doi:10.1101/2024.12.27.630466.

Molecular target: ErlA
Assay: SEC

## ErlB (natural protein)
  stoichiometry N (ErlB per ErlA (4:4)): 1
